In one data set the target is SNAP-FZD5 (UniProt Q13467). Nature of the data set: SNAP-FZD5-dependent recruitment of DEP-GFP to the plasma membrane (cell scoring). Conditions: n = 100 cells scored in each case, read off a plot; for other: % of cells with strong recruitment (category 'strong'): parent: est. 98.
Data set [1] deals with the molecule itself. Briefly: SEC-MALS; unfractionated purified Lip-DEP_(402–510), Lip tag kept; Tris-buffered saline (30 mM Tris, 300 mM NaCl, NaN3 0.03%, pH 7.4), Superdex S-200 10/300. (SEC sorts molecules by how far they enter the pores of the column.)
Data set [2] concerns the molecule itself. Nature of the data set: SEC-MALS; cleaved DEP monomer incubated with urea (0 to 5 M for wt; 3 M for the mutants) for 8 h at 25 °C, then SEC-MALS in Tris-buffered saline (30 mM Tris, 300 mM NaCl, pH 7.4); monomer to domain-swapped dimer.

Residue numbers refer to the chain shown, from its start.

Sequence of SNAP-FZD5 (Q13467 27-585): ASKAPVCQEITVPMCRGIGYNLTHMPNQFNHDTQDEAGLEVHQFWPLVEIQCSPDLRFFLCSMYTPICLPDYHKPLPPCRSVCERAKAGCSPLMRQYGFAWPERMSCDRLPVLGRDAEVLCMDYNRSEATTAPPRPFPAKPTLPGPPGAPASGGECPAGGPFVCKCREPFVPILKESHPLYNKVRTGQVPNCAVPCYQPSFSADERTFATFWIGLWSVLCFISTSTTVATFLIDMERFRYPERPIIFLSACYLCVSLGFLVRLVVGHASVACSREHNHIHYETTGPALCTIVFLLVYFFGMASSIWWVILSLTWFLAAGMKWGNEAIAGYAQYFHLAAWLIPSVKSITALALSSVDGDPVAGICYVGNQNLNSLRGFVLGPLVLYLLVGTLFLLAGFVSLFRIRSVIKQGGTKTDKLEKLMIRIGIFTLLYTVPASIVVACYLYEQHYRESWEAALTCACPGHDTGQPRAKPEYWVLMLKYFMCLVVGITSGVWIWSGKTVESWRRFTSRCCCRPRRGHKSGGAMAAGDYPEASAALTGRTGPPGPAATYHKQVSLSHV

As for “DEP tagged with GFP (DEP-GFP), wild type (from UniProt O14641) S418E”, in the data set with SNAP-FZD5, the other: % of cells with strong recruitment (category 'strong') was 100 % of cells.

Turning to “DEP tagged with GFP (DEP-GFP), wild type (from UniProt O14641) S435A”, in the data set with SNAP-FZD5, the other: % of cells with strong recruitment (category 'strong') was 97 % of cells.

For the molecule “DEP tagged with GFP (DEP-GFP), wild type (from UniProt O14641) L445E”, the other: % of cells with no recruitment (category 'none') in the data set with SNAP-FZD5 is 94 % of cells.

Turning to “DEP tagged with GFP (DEP-GFP), wild type (from UniProt O14641) S435E”, the other: % of cells with strong recruitment (category 'strong') with SNAP-FZD5 was 99 % of cells.

As to “DEP tagged with GFP (DEP-GFP), wild type (from UniProt O14641) S418A”, the other: % of cells with strong recruitment (category 'strong') in the data set with SNAP-FZD5 was 98 % of cells.

B1: Lipoyl-tagged DEP (Lip-DEP_(402–510)), wild type (domain or fragment, human, UniProt O14641 402-510, looked up)
chain: ITSGSSLPDGCEGRGLSVHTDMASVTKAMAAPESGLEVRDRMWLKITIPNAFLGSDVVDWLYHHVEGFPERREARKYASGLLKAGLIRHTVNKITFSEQCYYVFGDLSG
notes: also called Lip-DEP402 to 510; source: E. coli BL21-CodonPlus(DE3)-RIL, purified (NiNTA, SEC)
In the case of B1, the stoichiometry N (commonly the number of molecules, sites or subunits per partner or assembly) in data set [1] turned out to be 2.

B2: Lip-DEP_(402–510) S435E (domain or fragment, human, UniProt O14641 402-510, looked up)
chain: B1 chain with S34E
notes: source: E. coli BL21-CodonPlus(DE3)-RIL, purified (NiNTA, SEC)
As to B2, the binding result in data set [1] was “binds”.

B3: cleaved wt DEP monomer (Lip tag removed) (domain or fragment, human, UniProt O14641 402-510, looked up)
chain: B1 chain
notes: also called monomeric DEP; source: E. coli BL21-CodonPlus(DE3)-RIL, purified (NiNTA, SEC), Lip tag removed by tobacco etch virus protease
For the molecule B3, the “stoichiometry N” value in data set [2] worked out at 2.

B4: Lip-DEP_(402–510) S418A (domain or fragment, human, UniProt O14641 402-510, looked up)
chain: B1 chain with S17A
notes: as for B2
For B4, the binding result in data set [1] is listed as “binds”.

B5: Lip-DEP_(402–510) S435A (domain or fragment, human, UniProt O14641 402-510, looked up)
chain: B1 chain with S34A
notes: as for B2
Regarding B5, in data set [1], the binding result is listed as “binds”.

B6: Lip-DEP_(402–510) S418E (domain or fragment, human, UniProt O14641 402-510, looked up)
chain: B1 chain with S17E
notes: as for B2
On to B6, for which the binding result in data set [1] was “binds”.

The values are drawn from paper PMC8256032, “Regulation of Dishevelled DEP domain swapping by conserved phosphorylation sites” (Proceedings of the National Academy of Sciences of the …, 2021).
